Patent US20210261665A1

Experiments:
[1] = biological target: human PD-1 on cells (human) (UniProt Q15116); experiment: cell based RBA (flow cytometry): blocking of Biotin-hPD-L1 binding to CHOK1-hPD-1 cells
[2] = biological target: hPD-1 protein (ELISA coat) (human) (UniProt Q15116); experiment: ELISA against hPD-1 ECD-Fc protein (plate coat)
[3] = biological target: human PD-1 on cells (human) (UniProt Q15116); experiment: cell based RBA (flow cytometry): blocking of Biotin-hPD-L2 binding to CHOK1-hPD-1 cells
[4] = biological target: human PD-1 on cells (human) (UniProt Q15116)
[5] = biological target: cynomolgus monkey PD-1 on cells (cynomolgus monkey) (UniProt B0LAJ3); experiment: flow cytometry on CHOK1-cPD-1 cells
[6] = biological target: mPD-1 protein (ELISA coat) (mouse) (UniProt Q02242); experiment: ELISA against mPD-1 ECD-Fc protein (plate coat)
[7] = biological target: human PD-1 on cells (human) (UniProt Q15116); experiment: flow cytometry on CHOK1-hPD-1 cells

Sequence of human PD-1 on cells (human) (Q15116 25-288): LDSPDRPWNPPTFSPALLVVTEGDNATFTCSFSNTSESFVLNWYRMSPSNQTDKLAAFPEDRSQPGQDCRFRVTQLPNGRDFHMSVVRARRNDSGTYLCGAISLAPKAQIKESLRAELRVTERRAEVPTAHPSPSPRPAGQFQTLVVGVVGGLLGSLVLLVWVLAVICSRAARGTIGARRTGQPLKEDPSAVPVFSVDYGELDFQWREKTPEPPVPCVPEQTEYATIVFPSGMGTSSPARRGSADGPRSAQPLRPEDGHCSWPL
Sequence of hPD-1 protein (ELISA coat) (human) (Q15116 25-167 limits assumed): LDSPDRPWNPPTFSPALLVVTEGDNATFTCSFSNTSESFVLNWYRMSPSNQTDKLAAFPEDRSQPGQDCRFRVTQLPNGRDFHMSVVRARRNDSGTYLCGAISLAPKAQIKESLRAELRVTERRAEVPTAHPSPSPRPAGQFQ
Sequence of cynomolgus monkey PD-1 on cells (cynomolgus monkey) (B0LAJ3 entry or part of it limits assumed): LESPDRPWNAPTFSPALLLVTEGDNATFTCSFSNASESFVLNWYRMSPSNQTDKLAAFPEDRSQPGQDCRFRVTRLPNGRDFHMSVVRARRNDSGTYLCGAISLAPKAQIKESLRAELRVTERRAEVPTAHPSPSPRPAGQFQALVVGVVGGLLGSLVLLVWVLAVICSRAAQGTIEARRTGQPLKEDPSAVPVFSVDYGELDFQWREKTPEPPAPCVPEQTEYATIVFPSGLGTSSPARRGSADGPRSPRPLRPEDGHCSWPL
Sequence of mPD-1 protein (ELISA coat) (mouse) (Q02242 25-167 limits assumed): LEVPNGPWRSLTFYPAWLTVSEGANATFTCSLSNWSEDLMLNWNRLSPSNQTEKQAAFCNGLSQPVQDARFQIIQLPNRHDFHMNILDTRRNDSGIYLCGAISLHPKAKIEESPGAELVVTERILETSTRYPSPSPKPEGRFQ

Inhibition rate [1]: 4.9% | Max OD450 [2]: 0.67 | Inhibition rate [3]: -5.5% | EC50 printed for the negative control; its RLU curve is flat at about 270000 and falls to about 225000 at the highest concentration, no activation [4]: 12.4 µg/mL | Max MFI [5]: 86 | Max OD450 [6]: 0.92 | Max MFI [7]: 107
Substance: control human IgG4 (antibody)
